Results published in article PMC5681642.

Tests used:
[1] = molecular target: Recombinant BTA121 (Borrelia turicatae), dodeca-His tag cleaved (Borrelia turicatae); test: SEC; Phenomenex Yarra 3 µ SEC-2000 HPLC column, 1.0 mg/mL, 50 µg loaded, room temperature, 0.5 mL/min; molecular weight estimated with Bio-rad gel filtration standard
[2] = molecular target: T1, BTA121 (Borrelia turicatae, UniProt A0A0R9P931); test: radioligand binding, Q-sepharose separation, scintillation counting
T1 construct: signal peptide and further N-terminal residues removed, putative PARP domain kept; N-terminal dodeca-His tag cut with TEV protease; E. coli BL21-CodonPlus(DE3)-RIPL; predominantly monomer, some dimer
Excerpt: radioligand binding, Q-sepharose separation, scintillation counting on BTA121 | BTA121 binds palmitate with micromolar Kd

Molecule	stoichiometry N [1]	Kd [2]
Recombinant BTA121 (Borrelia turicatae), dodeca-His tag cleaved (from UniProt A0A0R9P931 1-445) (natural protein)	2	
CCCCCCCCCCCCCCCC(=O)O [palmitate]		229 µM
